Patent US20240124857A1, “COMPOSITION FOR GUT HEALTH” (DUPONT NUTRITION BIOSCIENCES APS, priority 2021, published 2024)

What was measured:
Format in all cases: biochemical
[1] = ATPase activity at 0.05 ppm enzyme on 0.1 mM ATP (absorbance 620 nm); settings: for Activity on ATP (absorbance at 620 nm, blank subtracted), pH 5.0: 50 mM IVIES buffer pH 5; for Activity on ATP (absorbance at 620 nm, blank subtracted), pH 6.0: 50 mM IVIES buffer pH 6
Description: Enzyme activity towards ATP or ADP at pH 3 to 9: The ability of candidate enzymes to degrade ATP or ADP to AMP and free phosphate (Pi) was measured using a standard malachite green phosphate detection kit (Sigma Aldrich cat no. MAK307). The enzyme reactions were carried out in 96-well plates with a total volume of 150 μL and contained 250 μM of a substrate, 50 mM of a buffer, 5 mM CaCl2, and a variable concentration of enzyme. The substrate was ATP or ADP. The buffer was glycine (pH 3), acetate (pH 4, 4.5, 5), bis-Tris (pH 5.5, 6, 6.5), or Tris (pH 7, 8, 9). The concentration of enzyme varied from about 1 μg/mL to 1 ng/mL and was adjusted based on the activity of the enzyme so that the amount of phosphate released during the assay was with the dynamic range of the assay (5-100 μM phosphate). The enzyme concentration was determined by the absorbance at 280 nm and using the predicted molecular weight and molar extinction coefficient to calculate the concentration. The enzyme reaction was initiated by the addition of 15 μL enzyme with 135 μL of the other reaction components such that the final reaction composition was as previously described. The reaction was stopped after 5 min by mixing 80 μL of the reaction mixture with 20 μL of the malachite green working reagent. The malachite green working reagent was prepared according to the manufacturer's protocol by mixing 100 parts reagent A with 1 part reagent B. Phosphate standard solutions (0-80 μM) and a negative control reaction without enzyme were also mixed with the malachite green working reagent. All samples were tested in duplicate. The malachite green reaction mixture was allowed to rest at room temperature for 45-60 min and the absorbance at 620 nm was measured. Lastly, the absorbance of the phosphate standards were used to convert the absorbance readings of each sample into phosphate concentrations and the negative control was subtracted from each reaction.
Enzymes of interest were assayed against ATP substrate. The ATPase activity was measured at 0.05 ppm concentration in 50 mM IVIES buffer pH 6 and pH 5 with 0.1 mM ATP as substrate as described in Example 1. Commercial potato apyrase was used as reference. The absorbance at 620 nm was measured and the absorbance of a blank sample (water) was subtracted from each sample.

[2] = pH profile of enzymes on 1 mM ATP; settings: 50 mM trisodium citrate/citric acid, 5 mM CaCl2, relative to the highest value
Description: The pH profile of additional enzymes of interest was assayed using 1 mM ATP, in 50 mM trisodium citrate/citric acid buffer with 5 mM CaCl2. Absorbance was read at 620 nm and all values were set relative to the highest one. Commercial potato apyrase was used as reference. […]

[3] = Relative activity on ATP of CRC22110 single-site variants; settings: in comparison to CRC22110 wild type

Row | Molecule | Activity on ATP (absorbance at 620 nm, blank subtracted), pH 5.0 [1] | Activity on ATP (absorbance at 620 nm, blank subtracted), pH 6.0 [1] | Relative activity on ATP, pH 3 [2] | Relative activity on ATP, pH 3.5 [2] | Relative activity on ATP, pH 4 [2] | Relative activity on ATP, pH 4.5 [2] | Relative activity on ATP, pH 5 [2] | Relative activity on ATP, pH 5.5 [2] | Relative activity on ATP, pH 6 [2] | Relative activity on ATP, pH 6.5 [2] | Relative activity (%) on ATP [3] [%]
1 | CRC25084: Acid phosphatase (Class A), accession WP_088823167.1, SEQ ID NO:20 (protein, listed as Acinetobacter apis) ADSNNSFLQLNQVPDSLKIVPAPPAFNSVDFLRDKAAYDQARSLVGTARWQQAAVDADLSDANIGKSFSEAFGVEISPTNTPVTYEILRKLRTDAGGYATKTAKEHYMRMRPFVFFNSHTCTPNDEASLSKNGAYPSGHTTIGWSSALILAEIRPDRQNEILERGYQYGQSRVICGVHWQSDVDAGRITGSAIVARLHADKDFAKTLEDAKREIQKKIK | 0.20 | 0.17 | 0.4 | 0.6 | 0.6 | 0.9 | 0.9 | 1.0 | 1.0 | 0.9 | –
2 | CRC22110v8: single-site variant F205A of CRC22110 (SEQ ID NO: 9) (protein, listed as Gallaecimonas xiamenensis) ADKPACRAVFDAGSSGTRLFLYVQQEGGWQPWPGAKLGALADPVRQHQGPKAMAALAADLANSLEALRQDGPTNSEGQPRWQGFDWQQACRLQSVSVLATAGMRLAEQQDPVASVALWQEVQQALAGLLGPAVAIDARTLTGFEEGFYAWLAARARLGRSDMGIVEMGGASSQVAFPCPACDRADDAVQQVRLEGQTLDFYSYSALGLGQDEAPKVLGVPHACRYGAGVKDPNWQLGQCQAQLPLTLGRALKDPYNFQGQGQGGYRQVPTEKAGVKDWLLTGAFQYNTPDQLDSCCLNQGQCYQPSTACFRVAYLPLYLDSLGVDPHSPDLDVSWTLGAVLCRNEQCLAPSKPPCRWRKAGCLAPSVGDGRPEGRPGQQPGGVQHRQH | – | – | – | – | – | – | – | – | – | – | 68
3 | CRC25099: Acid phosphatase (Class A), accession WP_195761705.1, SEQ ID NO:23 (protein, listed as Pantoea sp.) LQSSGFLTAETAPDSLAILPPPPAENSVTFQSDKAQYEAGHVLRNVARTELASKDADYKNFGQAFSAAFGMEISESHTPVLYHLLSEVLQDSHDFAMRGAKDHYKRVRPFVIYKDSTCTPDKDKSMSTTGSYPSGHASFGWAAALILAEINPSRETEIIRRGYDFGESRVVCGAHWQSDVENGRIMGATVVASLHANAKFAELLSQAKNEFATLSAQDSK | 1.05 | 0.93 | 0.0 | 0.1 | 0.3 | 0.7 | 0.8 | 1.0 | 0.8 | 0.5 | –
4 | CRC25085: Acid phosphatase (Class A), accession WP_092747651.1, SEQ ID NO:21 (protein, listed as Acinetobacter boissieri) LEQSNSFLQLAQVPDSLAIVPAPPAYNSVDFLRDKAAYDQAKSLVGTERWKVAAEDADLSDANIGKPFSQALGIEISPQNTPITYEILRKLRTDAGNYATKAAKEHYMRLRPFMFFNSHTCTPNDEANLSKNGAYPSGHTTIGWSSALVLAEIRPERQNEILQRGYEYGQSRVICGVHWQSDVDAGRITGSAIVARLHADKAFTKMLEEAKQEIQRKTK | 0.23 | 0.20 | 0.5 | 0.6 | 0.8 | 0.9 | 0.9 | 1.0 | 0.8 | 0.9 | –

Further lines, with some results ahead:

Row | Activity on ATP (absorbance at 620 nm, blank subtracted), pH 5.0 [1] | Activity on ATP (absorbance at 620 nm, blank subtracted), pH 6.0 [1] | Molecule | Relative activity on ATP, pH 3 [2] | Relative activity on ATP, pH 3.5 [2] | Relative activity on ATP, pH 4 [2] | Relative activity on ATP, pH 4.5 [2] | Relative activity on ATP, pH 5 [2] | Relative activity on ATP, pH 5.5 [2] | Relative activity on ATP, pH 6 [2] | Relative activity on ATP, pH 6.5 [2] | Relative activity (%) on ATP [3] [%]
5 | 1.11 | 0.90 | CRC25100: Acid phosphatase (Class A), internal database, SEQ ID NO:24 (protein, environmental sample) GENSGFLSPETSPNSLEILPPPPSEGSIAFLNDKANYDIGHTLKNEGRLAQAVSDANYKNLTDAFSKAFGETISEQNTPALYSLLQNVLQDSHDFAMRAAKDHYKRVRPFVIYKDHTCTPAEDTKMAKTGSYPSGHASFGWATALVLSEINPARETEILKRGYEFGQSRVICGAHWQSDVDSGRIMGAAVVASLHNNSDFISALAKAKEEFRKK | 0.0 | 0.0 | 0.1 | 0.4 | 0.8 | 1.0 | 1.0 | 0.7 | –
6 | 0.05 | 0.10 | CRC22104: GDA1/CD39 family enzyme, accession TAL58835.1, SEQ ID NO:7 (protein, listed as Legionella sp.) IEQDPCQEKQCMIVVDAGSTGSRLHFYTYDTDETNSPINIEEIWSKRIKPGISHVEANRSSIDAYLVTLLAGTPHSNHVPVYFYATAGMRLLPAAKQKLIYQEIKFWFAQQNQWRLMDAKTIYGSQEALYDWLAVNHQLGTLQSVQTKSVGVMDMGGASVQIVFPVQNNPDLKNNTLAEFNLYGQHIRLAVRSFLGLGQTEMSHQFLNYAPCFANNYPLPDGFLGEGDALSCVEEVASLMNGVHSVNKEIQPLLAANPVNIWYAIGGLSFLADNSVIHFNNYQLTNEQLLQQVDSKICHQEWDVLDEQFPNEEYLYQFCLLSAYYYALMVEGYGLLPNETINYLPSSQNLDWTIGVVLYPRLTVLQ | 0.0 | 0.0 | 0.0 | 0.3 | 0.8 | 0.9 | 1.0 | 1.0 | –
7 | 0.24 | 0.05 | CRC25089: Acid phosphatase (Class A), accession WP_217352265.1, SEQ ID NO:22 (protein, listed as Paraburkholderia bonniea) AGSDGFLTAETAPSSLAILPPPPAENTVAFLNDKANYEIGRSLKNDARVALAASDANCKNINAIFSSAFGREISEEKTPKLYRLLLGVLQDSHDHAMKSAKNHYMRVRPFVMYGDKTCTPEEDNKMKNTGSYPSGHASFGWAAALVLSEINPERTTEILRRGYDFGQSRVVCGAHWQSDVDNGRLMGAAVVADLHNNDKFIKALEAAKAEFKENTPGN | 0.8 | 1.0 | 0.9 | 0.9 | 0.8 | 0.7 | 0.3 | 0.2 | –
